This experiment concerns the target recombinant human ErbB2/HER2 Fc chimera protein (R&D Systems, cat no. 1129-ER) (human) (UniProt P04626).

For orientation: Kd means the equilibrium constant for the complex coming apart. On to “IgG1^HER2 (monoclonal anti-HER2 IgG1; Trastuzumab) (antibody)”, for which the Kd is 0.72 nM.

For the origin of these results see US20230009161A1.
